Measured values reported in PMC9733292 (Journal of Translational Medicine, 2022).

Target: T1, CD3 receptor (CD3ε subunit of the T cell receptor complex) (Homo sapiens, UniProt P07766)
T1 construct: also called CD3 antigen; CD3 receptors
Experiment: flow cytometry on cells
Details: one partner purified

T1 sequence (P07766 23-207, one chain of several): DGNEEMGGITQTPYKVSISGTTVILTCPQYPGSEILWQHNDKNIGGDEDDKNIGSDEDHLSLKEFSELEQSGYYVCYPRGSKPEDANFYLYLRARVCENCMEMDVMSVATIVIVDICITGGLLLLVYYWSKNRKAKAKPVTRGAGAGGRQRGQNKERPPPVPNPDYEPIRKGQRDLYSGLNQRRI

Binder	binding result
scFv OKT3 wild-type (scFv, V domains shown, also called OKT3 single chain variable fragment) VH: not shown VL: QIVLTQSPAIMSASPGEKVTMTCSASSSVSYMNWYQQKSGTSPKRWIYDTSKLASGVPAHFRGSGSGTSYSLTISGMEAEDAATYYCQQWSSNPFTFGSGTKLEIN	binds
scFv OKT3 E129AzK (scFv, V domains shown, also called scFv OKT3 E129AzK variant) VH: not shown VL: QIVLTQSPAIMSASPGEKVTMTCSASSSVSYMNWYQQKSGTSPKRWIYDTSKLASGVPAHFRGSGSGTSYSLTISGMEAEDAATYYCQQWSSNPFTFGSGTKLEIN	binds
